From the supplement of paper PMC9170038

Tests used:
[1] = test system: MS2 coat protein; assay: apparent KD of MS2 coat protein, switch ON state; designed switch direction (-1 OFF switch, 1 ON switch): -1; higher = weaker reporter binding; details: FMN input: 0 or 200 uM; Eterna round: R93 (includes R88 designs)
How it was run: (§1)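 Designed RNA switches were transcribed on-chip from Illumina sequencing clusters and titrated with SNAP-549-labelled MS2 coat protein in twofold steps from 0.7 or 1.5 nM up to 3 µM. Each step lasted 0.8–1.5 h at first and 10–20 min by the end, in 100 mM Tris-HCl pH 7.5, 80 mM KCl and 4 mM MgCl2, without or with constant ligand. Apparent KD is the median, for each design, of fits to normalised cluster binding curves.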

[2] = test system: MS2 coat protein; assay: apparent KD of MS2 coat protein, switch OFF state (with FMN for OFF switches, without FMN for ON switches); designed switch direction (-1 OFF switch, 1 ON switch): -1; higher = weaker reporter binding; details: FMN input: 0 or 200 uM; Eterna round: R93 (includes R88 designs)
How it was run: as §1

Sequence	apparent KD of MS2 coat protein [1] [µM]	apparent KD of MS2 coat protein [2] [µM]
AGGAAACAUGAGGAUCACCCAUGUAAGGAUAUGAGAAAGAAAAGAAAAGAAAGAAGAAUCAGAAGGUACAAGAA [Semerkhet]	0.0344	0.0892
AGGAAACAUGAGGAUCACCCAUGUGAGGAUAUCAGAAAGAAAAGAAAAGAAAGAAGAAUGAGAAGGCACAAGAA [Hotepsekhemwy]	0.026	0.0408
AGGAAACAUGAGGAUCACCCAUGUGAGGAUAUUGGAAAGAAAAGAAAAGAAAGAAGAAUAAGAAGGCACAAGAA [Merneith]	0.0218	0.0182
AGGAUGUCAGGAUAUGUGUAAAGAAUAAAACAAAUAACAACACAGAAGGGACAUGAGGAUCACCCAUGUUAAAA [May 36]	0.0449	0.054
AGUAUGCGAGGAUAUACAUGAGGAUCACCCAUGUGAGAGAUAUGAGUGAGAAAGACAAGUAGAAGGCGCGUACA [JL Lego Mod 26]	0.0998	0.0114
AGUCAUACAGGAUAUACAUGAGGAUCACCCAUGUUUAUCCUAAAAAGGUGAUCCUCAUGUAGAAGGGUAUGACA [EX3 210: Super Stable 10]	0.0124	0.0166
AGUUGGCGAGGAUAUACAUGAGGAUCACCCAUGUGAGAAAAAAAAGUGAGAAAGAAAAGUAGAAGGCGCUGACA [Mat - Exclusion 3 - Lego mod - D88]	0.0546	0.314
AUAAAACAUGAGGAUCACCCAUGUAAGGAUAUGCGAAAAUAAAAUAAAAUAAAAUAAAGCAGAAGGUACAAAAA [Insulation 1]	0.0291	0.0373
AUAAACUGAGGAUAUACAUGAGGAUCACCCAUGUAAAAAAAAAAAAGUUCCUCAAAAAGUAGAAGGCAGAAUAA [JR_Exc003_Sub013]	0.0132	0.0194
AUAAAGCGAGGAUAUACAUGAGGAUCACCCAUGUAAAUAAAUAGGAGAGCCACAAUAAGUAGAAGGUGCAAUAA [JR_Exc003_Sub008]	0.0548	0.0465
AUAAGUCGAGGAUAUACAAAAUGCUAGCGAAAGCUAGCAUAACAUGAGGAUCACCCAUGUAGAAGGCGACAAUA [Tetraloop hairpin BlockHead Variation2]	0.0217	0.0213
AUAGGCCUAGGAUAUACAUGAGGAUCACCCAUGUUAAUAAUUCAAACAUGAUAAACGUGUAGAAGGAGGAAUAA [JR_Exc003_Sub302]	0.0408	0.0653
AUCAUGUCAGGAUAUCGUGCAGCUACCGAAAGGUAGCUGCACGAGAAGGGACAUGAGGAUCACCCAUGUAUGAA	0.0277	0.0243
AUCGAUCGAGGAUAUACAUGAGGAUCACCCAUGUAAAAAAAAAAAAAGGCCUCAGGAUGUAGAAGGCGACGCAA [JR_Exc003_Sub403]	0.0185	0.0187
AUCGUUGGAGGAUAUGCUUGGAAAAAAAAAAAAAAAAAAAAACAUGAGGAUCACCCAUGUAGAAGGUCAAUGGA [Banishment 6 - Jieux - Exclusion 2]	0.0499	0.0305
AUGUACCUAGGAUAUACAUGAGGAUCACCCAUGUAUUGGGAGCAAUCCAGUUAAUAUUGUAGAAGGAGGUGAAA [JR_Exc003_Sub317]	0.0381	0.065

Sequence	apparent KD of MS2 coat protein [1] [µM]	apparent KD of MS2 coat protein [2] [µM]
AUUCUACAUGAGGAUCACCCAUGUGAGGAUAUGCUAUACUAUUGUUGCAAUACUUAGAGCAGAAGGCACAUCGU [JR_EXc001_Sub801]	0.0302	0.0662
CAAAACAAAGGAUAUAAAACAGAGGAUAUACAUAAAUAAAAACAUGAGGAUCACCCAUGUAGAAGGCUGAAAAC [Meechl Ex2 R2 m3]	0.0219	0.023
CAAAAGGAAGGAUAUACAUAAUAAAACGGGCGGGCACCUUGACAUGAGGAUCACCCAUGUAGAAGGUCCAAUAA [Ramaanan]	0.0169	0.0181
CAAAGGUGAGGAUAUACGAGGAUAUGACGAAAGUCAUAAAAACAUGAGGAUCACCCAUGUAGAAGGCACCACAA [E2 64% 5]	0.0278	0.0328
CAGUACUGAGGAUAUACAUGAGGAUCACCCAUGUGAUCAAGCUACGAAAGUAGCACAUGUAGAAGGCAGUACUG [Ex3: 808]	0.024	0.0191
CAGUACUGAGGAUAUACAUGAGGAUCACCCAUGUGGGAAAGCUACGAAAGUAGCAAAUGUAGAAGGCAGUACUG [Ex3: 805]	0.153	0.0987
CCCAUGUCAGGAUAUCAGUAGUAAAAAAAAAAAAUUACUACUGAGAAGGGACAUGAGGAUCACCCAUGUACCUU [EX4 319: Super Stable 19]	0.0721	0.0681
CCCUAGUCAGGAUAUACAAACAUGUCAAAAGACGUGAAAAAACAUGAGGAUCACCCAUGUAGAAGGGACUAGGG [Mat - Exclusion 2 - JL mod - D19]	0.0153	0.0152
CCUAUGUCAGGAUAUCAGUAGUAAAAAAAAAAAAUUACUACUGAGAAGGGACAUGAGGAUCACCCAUGUUCAAA [EX4 313: Super Stable 13]	0.0424	0.0664
CCUGUGUGAGGAUAUGGUAAAAAAAAAAAAAAAUAGCUCCUCCAGAAGGCACAUGAGGAUCACCCAUGUCGUGG [Jolly's Folly 16 - Jieux - Exclusion 4]	0.0376	0.0739
CUCAAGUAAGGAUAUCGAAGAAAAGAAGAGAAAGAAAAGAACGAGAAGGUACAUGAGGAUCACCCAUGUAAGAA [EteRNA is fun!]	0.0324	0.028
CUCAAGUAAGGAUAUCUAAGAAAAGAAGAGAAAGAAAAGAAAGAGAAGGUACAUGAGGAUCACCCAUGUAAGAA [EteRNA is fun!]	0.0344	0.0299
CUCAAGUAAGGAUAUGAAAGAAAAGAAGAGAAAGAAAAGAAUCAGAAGGUACAUGAGGAUCACCCAUGUAAGAA [EteRNA is fun!]	0.0303	0.0231
CUCAAGUAAGGAUAUGCAAGAAAAGAAAAGAAAGAAAAGAAGCAGAAGGUACAUGAGGAUCACCCAUGUAAGAA [EteRNA is fun!]	0.0254	0.0423
CUCAUGUGAGGAUAUCAGUAGUAAAAAAAAAAAAUUACUACUGAGAAGGCACAUGAGGAUCACCCAUGUACCUU [EX4 326: Super Stable 26]	0.0377	0.0426
